Broadly, the IC50 is the concentration that inhibits the measured activity by half. The low end stands for greater potency, the high end for weaker potency.

From patent publication US20250320281A1 come the findings set out here.

A value given as a limit tells only on which side of the number the result lay.

Assay in all cases: cell-based or functional assay
Assay [1] deals with HIV-1 Env of isolate MGRM-D-016 (pseudovirus) (HIV-1).
For assay [2], the target named is HIV-1 Env of isolate MGRM-AG-011 (HIV-1).
The target of assay [3] is HIV-1 APV13 Env (pseudovirus) (HIV-1).
The target in assay [4] is HIV-1 92UG005 envelope glycoprotein (Env) on pseudovirus (HIV-1).
Assay [5] has as its target HIV-1 Env of isolate 92UG046 (pseudovirus) (HIV-1).
The target of assay [6] is HIV-1 Env of pseudovirus isolate MGRM-G-025 (HIV-1).
In assay [7] the target is HIV-1 Env of isolate MGRM-D-002 (pseudovirus) (HIV-1).
The target of assay [8] is HIV-1 Env of isolate MGRM-F1-021 (HIV-1).
Assay [9] concerns the target HIV-1 MGRM-AG-005 Env (pseudovirus) (HIV-1).
Assay [10] addresses HIV-1 94UG103 Env (pseudovirus, clade A) (HIV-1).
The target of assay [11] is HIV-1 Env of pseudovirus isolate MGRM-G-024 (HIV-1).
The target of assay [12] is HIV-1 Env of isolate MGRM-AG-009 (subtype AG) (HIV-1).
Assay [13] concerns the target HIV-1 Env of isolate MGRM-A-006 (HIV-1).
The target of assay [14] is HIV-1 Env of isolate VLGCA1 (subtype A) (HIV-1).
The target of assay [15] is HIV-1 Env of isolate 92TH021 (subtype AE) (HIV-1).
For assay [16], the target named is HIV-1 envelope glycoprotein (Env) of isolate MGRM-C-022 (HIV-1).
For assay [17], the target named is HIV-1 Env of isolate MG RM-D-021 (HIV-1).
The target in assay [18] is HIV-1 Env of isolate 94UG103 (HIV-1).
Assay [19] concerns the target HIV-1 envelope glycoprotein (Env) of isolate MGRM-C-028 (HIV-1).
The target in assay [20] is HIV-1 Env of isolate MGRM-AG-003 (subtype AG) (HIV-1).
Assay [21] addresses HIV-1 Env of isolate MGRM-AG-008 (subtype AG) (HIV-1).
Assay [22] deals with HIV-1 Env of isolate JRFL (subtype B) (HIV-1).
The target of assay [23] is HIV-1 Env of isolate 92WR021 (HIV-1).
In assay [24] the target is HIV-1 Env of isolate MGRM-C-002 (subtype C) (HIV-1).
Assay [25] deals with HIV-1 Env of isolate MGRM-AE-001 (subtype AE) (HIV-1).
Assay [26] has as its target HIV-1 Env of isolate MGRM-AG-012 (subtype AG) (HIV-1).
Assay [27] addresses HIV-1 Env of isolate MG RM-D-008 (HIV-1).
The target of assay [28] is HIV-1 Env of isolate MGRM-AG-011 (subtype AG) (HIV-1).
In assay [29] the target is HIV-1 Env of isolate QH0692.42 (subtype B) (HIV-1).
The target in assay [30] is HIV-1 envelope glycoprotein (Env) of isolate MGRM-C-015 (HIV-1).

Chain of 5345_I01 (PGT-137) (antibody) (VH): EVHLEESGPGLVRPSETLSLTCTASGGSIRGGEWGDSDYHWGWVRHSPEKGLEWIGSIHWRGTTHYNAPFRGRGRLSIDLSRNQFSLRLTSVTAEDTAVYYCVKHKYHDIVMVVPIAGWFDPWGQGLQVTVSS
Chain of 5345_I01 (PGT-137) (antibody) (VL): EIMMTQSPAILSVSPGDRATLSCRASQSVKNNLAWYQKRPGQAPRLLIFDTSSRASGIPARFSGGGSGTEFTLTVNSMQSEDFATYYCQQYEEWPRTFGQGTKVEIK

With 4858_P08 (PGT-123) (antibody), the IC50, pseudovirus neutralization in assay [1] was greater than 50 µg/mL; in [5], greater than 50 µg/mL; in assay [7] it was 0.012 µg/mL. This substance also had an IC50 in [2] greater than 50 µg/mL. For the same substance, the neutralization IC50 (pseudovirus) worked out at 0.222 µg/mL in assay [3] and 0.104 µg/mL in [9]. For the same substance, the neutralization IC50 in assay [4] came to 2.49 µg/mL. Further, the neutralization IC80 in assay [4] is greater than 10 µg/mL. This substance also showed a neutralization IC90 in [4] greater than 10 µg/mL. Besides, the neutralization IC95 in assay [4] is greater than 10 µg/mL. Besides, the results for the IC50 (µg/mL), pseudovirus neutralization in [6], in assay [8] and in [11] were 0.046 µg/mL, 0.307 µg/mL and 0.032 µg/mL, respectively. The same substance registered an IC50 neutralization in assay [10] of 0.846 µg/mL.

Turning to 5136_H01 (PGT-131) (antibody), the IC50 (µg/mL), pseudovirus neutralization in [12] was greater than 50 µg/mL; in assay [14], greater than 50 µg/mL; in [15] it was 0.014 µg/mL; in assay [16], 0.78 µg/mL; in [17], 0.106 µg/mL; in [19], greater than 50 µg/mL. The IC50 (µg/mL), pseudovirus neutralization in [6] is 7.75 µg/mL; in assay [20], 2.92 µg/mL; in assay [21], greater than 50 µg/mL; in assay [25], 4.8 µg/mL; in assay [26], greater than 50 µg/mL; in [27], greater than 50 µg/mL. For the same substance, the IC50 (µg/mL), pseudovirus neutralization in [28] is greater than 50 µg/mL; in assay [11], 10.7 µg/mL; in assay [30], 1.01 µg/mL. The IC50 is greater than 50 µg/mL in [13], 1.1 µg/mL in assay [18] and 0.012 µg/mL in assay [23]. The IC50 neutralization was 0.454 µg/mL in [22], greater than 50 µg/mL in assay [24] and greater than 50 µg/mL in assay [29].

As to 5141_B17 (PGT-126) (antibody), the IC50, pseudovirus neutralization was greater than 50 µg/mL in [1], 0.0181 µg/mL in assay [4], greater than 50 µg/mL in assay [5] and 0.039 µg/mL in assay [7]. The same substance yielded an IC50 in [2] of 24.5 µg/mL. The neutralization IC50 (pseudovirus) in assay [3] is 0.012 µg/mL; in [9] it was 1.35 µg/mL. In assay [4], this substance gave an IC80 (pseudovirus neutralization) of 0.145 µg/mL. In assay [4], this substance showed an IC90 (pseudovirus neutralization) of 0.553 µg/mL. Moreover, the IC95 (pseudovirus neutralization) in [4] was 2.45 µg/mL. The results for the IC50 (µg/mL), pseudovirus neutralization in assay [6], in assay [8] and in assay [11] were 17.1 µg/mL, greater than 50 µg/mL and greater than 50 µg/mL, respectively. In [10], this substance came in with an IC50 neutralization of 0.0091 µg/mL.

As to 5343_B08 (PGT-135) (antibody), the IC50 (µg/mL), pseudovirus neutralization was greater than 50 µg/mL in [12]; greater than 50 µg/mL in assay [14]; greater than 50 µg/mL in [15]; greater than 50 µg/mL in [16]; greater than 50 µg/mL in [17]; 1.47 µg/mL in assay [19]. Further, the IC50 (µg/mL), pseudovirus neutralization in assay [6] is 0.592 µg/mL; in [20] it was greater than 50 µg/mL; in assay [21] it was greater than 50 µg/mL; in assay [25] it was greater than 50 µg/mL; in assay [26], 41.9 µg/mL; in assay [27], greater than 50 µg/mL. The figures for the IC50 (µg/mL), pseudovirus neutralization in [28], in [11] and in [30] were greater than 50 µg/mL, 0.062 µg/mL and 0.104 µg/mL, respectively. For the same substance, the IC50 in assay [13], in assay [18] and in assay [23] was greater than 50 µg/mL in each case. In addition, the results for the IC50 (neutralizing activity, pseudovirus) in assay [3] and in assay [9] were 0.545 µg/mL and greater than 10 µg/mL, respectively. Besides, the IC50 neutralization was greater than 50 µg/mL in [22], greater than 50 µg/mL in assay [24], greater than 10 µg/mL in assay [10] and greater than 50 µg/mL in [29].

5345_I01 (PGT-137) (antibody): the IC50 (µg/mL), pseudovirus neutralization in [12], in assay [14], in assay [15], in assay [16], in assay [17] and in assay [19] was greater than 50 µg/mL in each case. For the same substance, the IC50 (µg/mL), pseudovirus neutralization in assay [6], in [20], in assay [21], in assay [25], in assay [26] and in [27] was greater than 50 µg/mL each time. The IC50 (µg/mL), pseudovirus neutralization in assay [28] is greater than 50 µg/mL; in assay [11], 0.051 µg/mL; in assay [30], 1.98 µg/mL. Besides, the IC50 is greater than 50 µg/mL in assay [13], greater than 50 µg/mL in [18] and 3.52 µg/mL in [23]. Besides, the IC50 neutralization in [22] was greater than 50 µg/mL; in assay [24] it was 8.03 µg/mL; in assay [29] it was greater than 50 µg/mL.

As for 5114_A19 (PGT-128) (antibody), the IC50 (µg/mL), pseudovirus neutralization turned out to be 0.021 µg/mL in assay [12]; 0.838 µg/mL in assay [14]; 0.01 µg/mL in [15]; 0.042 µg/mL in assay [16]; 0.014 µg/mL in assay [17]; 14.4 µg/mL in [19]. In addition, the IC50 (µg/mL), pseudovirus neutralization in [6] was 0.017 µg/mL; in assay [20], 34.8 µg/mL; in assay [21], 0.668 µg/mL; in [25], 0.069 µg/mL; in assay [26] it was greater than 50 µg/mL; in assay [27], 0.033 µg/mL. Moreover, the IC50 (µg/mL), pseudovirus neutralization in [28] amounted to 3.93 µg/mL; in assay [11], 0.095 µg/mL; in assay [30], 0.196 µg/mL. The IC50 is greater than 50 µg/mL in [13], 0.011 µg/mL in [18] and 0.005 µg/mL in [23]. The IC50 neutralization in assay [22] was 0.007 µg/mL; in assay [24], 0.019 µg/mL; in [29], 0.029 µg/mL.

With 4877_D15 (PGT-122) (antibody), the IC50, pseudovirus neutralization in assay [1] is greater than 50 µg/mL; in assay [5], greater than 50 µg/mL; in assay [7], 0.005 µg/mL. This substance also gave an IC50 in assay [2] greater than 50 µg/mL. Besides, the neutralization IC50 (pseudovirus) is 0.992 µg/mL in assay [3] and greater than 10 µg/mL in assay [9]. Besides, the IC50 (µg/mL), pseudovirus neutralization came out at 0.079 µg/mL in [6], 2.3 µg/mL in [8] and 0.033 µg/mL in [11]. This substance also displayed an IC50 neutralization in assay [10] of 1.46 µg/mL.
